In patent publication US20030044400A1, “Composition and method for treating cells” (priority 2001, published 2003):
Where “and” joins values, the source holds several entries; their conditions need not be identical. Equal values may be shown once.

Tests used:
[1] = Rabbit Study to Determine the Safety of Fetuin by Intravenous Administration; type: in vivo; parameters: Temp Increase / Wt. Gain Mar. 6, 2000 / Wt. Gain April 6, 2000 / Wt. Gain April 19, 2000 / Mean of Wt.Gain / Globulin / Alanine Transferase / Aspartate Transferase / Mean of ALT / Mean of AST: unit not given here; conditions: rabbits; for Temp Increase: monitored 3 hours post injection; for Blood Glucose Level / Mean of blood Glucose level: non-fasting; for Wt. Gain: over 7 week period; for Albumin / Globulin: serum
Description: Rabbits weighing 1.75 to 2.5 kg are used in the study, 2 rabbits/group. The control group receives 1 ml of saline. […] All dilutions are made with sterile pyrogen free saline (0.9%). The study is designed to limit to an acceptable level the risk of a febrile reaction in patients. The animals are given their respective doses of Fetuin at two-day interval for a total of three doses if no reaction occurs. Blood samples are collected for a baseline prior to treatment and then 24-36 hours after the third treatment. At the end of the treatment period, blood is drawn to perform hematology to compare with the baseline levels. The body temperature is recorded for three hours post injection to determine if a febrile reaction is produced. The body temperature is monitored prior to injection (30 min) and then at 30 min interval for three hours. Prior to sacrifice, blood is drawn from each animal to determine the serum level of Fetuin. Organs are examined in all animals. The target organs: spleen, lymph nodes, thymus are examined for evidence of increased size. All tissues excised are preserved in 10% formalin for subsequent histopathology if necessary. Observations made at each dose level are tabulated to see if there is any correlation of symptoms and/or mortality and dose level of the test material. Body weights and necropsy results are recorded. Rabbit body temperature increases for each dose level is reported and conclusions made from the study.

PC-12 cells = assay: Apoptosis of PC-12 cells in the presence of serum; type: cell-based; conditions: PC-12 cells in 10% horse serum+5% FBS; 5 uM Fetuin
Description: PC-12 cells were seeded in 10% heat-inactivated horse serum+5% FBS+RPMI 1640 media for 1-2 days and treated with 5 uM Fetuin. […] The apoptosis-inducing activity of Fetuin at high concentration can be applied in therapy of neuroblastoma.

PC-3 induced tumor = assay: Prostate Tumor Inhibition Model (PC-3, nude mice); type: in vivo, nude adult male mice; conditions: for Avg. Weight Tumor / Avg. Weight mice / Total Weight Tumor: nude mice with PC-3 tumors
Description: The 30-35 g nude adult male mice were used for this study. The inoculum of PC-3 cells applied to induce tumor formation was adjusted with RPMI-1640 to 2×10^7 cells/0.1 ml. To induce tumor formation, a 0.1 ml suspension of PC-3 was injected subcutaneously at a site between the ears using a 26 gauge, ⅜″ needle. The tumors were allowed to grow for 38 days. The mice in the control group received 0.1 ml saline intraperitoneally for 10 days. Mice in the treated group received 10 consecutive 0.1 ml intraperitoneal injections of Fetuin adjusted by dilution in sterile deionized water to deliver dose concentration of 0.1 ml, 0.01 ml and 0.001 ml at 10 mg/ml. Tumors were weighed individually when the mice were sacrificed for subsequent histopathology study.

[2] = Fetuin 0.001 ml × 10 ip (10 mg/ml)
[3] = Fetuin 0.01 ml × 10 ip (10 mg/ml)
[4] = Fetuin 0.1 ml × 10 ip (10 mg/ml)

## Fetuin: Fetal bovine fetuin purified from fetal bovine serum by modified Spiro method; 60 Kd glycoprotein, homologue of alpha 2-HS glycoprotein
[1]
  signs of distress during the test: None of the animals displayed any signs of distress
[1]; iv
  toxicity, conclusion of rabbit study: no toxicity
[1]; iv, 65.7 mg/kg
  Alanine Transferase: 54 and 29
  Albumin/Globulin Ratio: 13.8 and 11.2
  Aspartate Transferase: 28 and 32
  Blood Urea Nitrogen: 21 mg/dL and 24 mg/dL
  Cholesterol: 69 mg/dL and 71 mg/dL
  Cholesterol Mean: 70 mg/dL
  Hematocrit: 37.0% and 40.2%
  Hematocrit % Mean: 38.6%
  Hemoglobin: 12.6 g/dL and 13.4 g/dL
  Hemoglobin Mean: 13.0 g/dL
  Mean of ALT: 41.5
  Mean of AST: 30
  Mean of BUN: 22.5 mg/dL
  Mean of WBC: 8.5 K/ul
  Mean of Wt.Gain: 1.14
  Spleen Wt.: 1.72 g and 1.54 g
  Spleen Wt. Mean: 1.63 g
  Thymus Wt.: 5.21 g and 6.56 g
  Thymus Wt. Mean: 5.85 g
  Ttl Serum Protn: 5.9 g/dL and 6.1 g/dL
  WBC, K/ul: 6.9 K/ul and 10.1 K/ul
  Wt. Gain April 6, 2000: 3.15 and 3.28
  Wt. Gain April 19, 2000: 3.65 and 3.72
  Wt. Gain Mar. 6, 2000: 2.48 and 2.61
  Blood Glucose Level: 94 mg/dL and 88 mg/dL
  Mean of blood Glucose level: 91 mg/dL
  Wt. Gain: 1.17 kg and 1.11 kg
  Albumin: 5.5 and 5.6
  Globulin: 0.4 and 0.5
[1]; iv, 65.7 mg/kg, Apr. 6, 2000
  Temp Increase: 0
[1]; iv, 65.7 mg/kg, Mar. 6, 2000
  Temp Increase: 0
[1]; iv, 126 mg/kg
  Alanine Transferase: 42 and 32
  Albumin/Globulin Ratio: 8.8
  Aspartate Transferase: 37 and 66
  Blood Urea Nitrogen: 20 mg/dL and 17 mg/dL
  Cholesterol: 66 mg/dL and 49 mg/dL
  Cholesterol Mean: 57.5 mg/dL
  Hematocrit: 38.2% and 38.6%
  Hematocrit % Mean: 38.4%
  Hemoglobin: 12.4 g/dL and 12.9 g/dL
  Hemoglobin Mean: 12.6 g/dL
  Mean of ALT: 37
  Mean of AST: 51.5
  Mean of BUN: 18.5 mg/dL
  Mean of WBC: 8.1 K/ul
  Mean of Wt.Gain: 0.76
  Spleen Wt.: 1.37 g and 1.9 g
  Spleen Wt. Mean: 1.43 g
  Thymus Wt.: 4.90 g and 5.21 g
  Thymus Wt. Mean: 5.05 g
  Ttl Serum Protn: 5.9 g/dL
  WBC, K/ul: 6.7 K/ul and 9.5 K/ul
  Wt. Gain April 6, 2000: 3.31 and 3.10
  Wt. Gain April 19, 2000: 3.56 and 3.26
  Wt. Gain Mar. 6, 2000: 2.60 and 2.70
  Blood Glucose Level: 221 mg/dL and 123 mg/dL
  Mean of blood Glucose level: 172 mg/dL
  Wt. Gain: 0.96 kg and 0.56 kg
  Albumin: 5.3
  Globulin: 0.6
[1]; iv, 126 mg/kg, Apr. 6, 2000
  Temp Increase: 0
[1]; iv, 126 mg/kg, Mar. 6, 2000
  Temp Increase: 0
[1]; iv, 185 mg/kg
  Alanine Transferase: 49 and 36
  Albumin/Globulin Ratio: 5.8 and 10.2
  Aspartate Transferase: 26 and 23
  Blood Urea Nitrogen: 19 mg/dL and 22 mg/dL
  Cholesterol: 35 mg/dL and 56 mg/dL
  Cholesterol Mean: 45.5 mg/dL
  Hematocrit: 35.2% and 37.3%
  Hematocrit % Mean: 36.3%
  Hemoglobin: 11.4 g/dL and 12.3 g/dL
  Hemoglobin Mean: 11.8 g/dL
  Mean of ALT: 42.5
  Mean of AST: 24.5
  Mean of BUN: 20.5 mg/dL
  Mean of WBC: 8.75 K/ul
  Mean of Wt.Gain: 1.02
  Spleen Wt.: 1.71 g and 1.64 g
  Spleen Wt. Mean: 1.67 g
  Thymus Wt.: 5.26 g and 5.60 g
  Thymus Wt. Mean: 5.43 g
  Ttl Serum Protn: 6.1 g/dL and 5.6 g/dL
  WBC, K/ul: 10.7 K/ul and 6.8 K/ul
  Wt. Gain April 6, 2000: 3.19 and 3.26
  Wt. Gain April 19, 2000: 3.69 and 3.77
  Wt. Gain Mar. 6, 2000: 2.80 and 2.61
  Blood Glucose Level: 117 mg/dL and 89 mg/dL
  Mean of blood Glucose level: 103 mg/dL
  Wt. Gain: 0.89 kg and 1.16 kg
  Albumin: 5.2 and 5.1
  Globulin: 0.9 and 0.5
[1]; iv, 185 mg/kg, Apr. 6, 2000
  Temp Increase: 0
[1]; iv, 185 mg/kg, Mar. 6, 2000
  Temp Increase: 0
[1]; any dosages of Fetuin
  rectal temperature change over 3 hr post injection: did not cause body temperature increase
PC-12 cells
  apoptosis-inducing activity: apoptosis-inducing activity was observed
PC-3 induced tumor; highest doses
  prostate tumor size compared to the control group: 40%
PC-3 induced tumor; [2]
  Avg. Weight Tumor: 2.03 g
  Avg. Weight mice: 33.9 g
  Total Weight Tumor: 6.1 g
PC-3 induced tumor; [3]
  Avg. Weight Tumor: 2.08 g
  Avg. Weight mice: 35.3 g
  Total Weight Tumor: 6.24 g
PC-3 induced tumor; [4]
  Avg. Weight Tumor: 1.01 g
  Avg. Weight mice: 32.0 g
  Total Weight Tumor: 3.04 g
